Source: article PMC10966536

Tested on: NmPAL (PAS-ANTAR-LOV photoreceptor) (Nakamurella multipartita)
Assay: fluorescence anisotropy
Details: FA: 4 nM RNA, 12 mM HEPES/HCl pH 7.7, 135 mM KCl, 10 mM NaCl, 1 mM MgCl2, 10% w/v glycerol, 100 ug/mL BSA, dark, or after 60 s blue light (465 nm), temperature …

Sequence | Kd (blue light, two-site fit, high-affinity site (second transition micromolar)) [µM] | Kd (darkness, text elsewhere calls this micromolar binding) [µM] | Kd (blue light, text says 83-fold reduced) [µM]
ACCUUCGGUUCAGCAGCGAGCCG [58 (motif 3), TAMRA] | 0.0035 | > 3 | 
ACCUUCGGUUCAGCUGCGAGCCG [58.M21, TAMRA] |  |  | 0.25
